Data taken from publication PMC7193404, “FHF1 is a bona fide fibroblast growth factor that activates cellular signaling in FGFR-dependent manner” (Cell Communication and Signaling : CCS, 2020).

Biological target: T1, extracellular region of FGFR1 fused to the Fc fragment (UniProt P11362 22-376)
T1 construct: extracellular region of FGFR1; also called FGFR1-Fc; source: produced in mammalian cells; as described previously [27-29]
T1 sequence (looked up): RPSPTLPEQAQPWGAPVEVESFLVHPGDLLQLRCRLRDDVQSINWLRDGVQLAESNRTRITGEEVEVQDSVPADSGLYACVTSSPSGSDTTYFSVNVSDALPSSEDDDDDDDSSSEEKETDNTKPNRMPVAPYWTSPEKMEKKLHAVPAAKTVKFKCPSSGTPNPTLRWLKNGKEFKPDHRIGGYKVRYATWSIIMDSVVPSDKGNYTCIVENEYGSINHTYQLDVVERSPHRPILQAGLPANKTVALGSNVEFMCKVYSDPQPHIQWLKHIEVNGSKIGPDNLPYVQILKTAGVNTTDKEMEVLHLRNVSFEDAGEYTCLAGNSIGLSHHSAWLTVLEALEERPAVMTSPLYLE
Test: SPR; Biacore 3000, 25 °C; FGFR1-Fc amine-coupled at low density (about 1000 RU) on CM4; FHF1 0.1-3.2 uM at 30 ul/min; PBS, 0.05% Tween 20, 0.2% BSA, 0.02% NaN3, pH 7.4; KD from fitted saturation binding curve (equilibrium responses); 1:1 model did not fit
Conditions: both partners purified

B1: fibroblast growth factor homologous factor 1, short isoform (FHF1b) (ligand, human, UniProt P61328-2 1-181, looked up)
chain: MESKEPQLKGIVTRLFSQQGYFLQMHPDGTIDGTKDENSDYTLFNLIPVGLRVVAIQGVKASLYVAMNGEGYLYSSDVFTPECKFKESVFENYYVIYSSTLYRQQESGRAWFLGLNKEGQIMKGNRVKKTKPSSHFVPKPIEVCMYREPSLHEIGEKQGRSRKSSGTPTMNGGKVVNQDST
notes: short isoform (FHF1b) of human FHF1 (FGF12); construct in pDEST17; Construct from F. Nakayama; also called FGF12; source: E. coli BL21 CodonPlus (DE3) RIL, purified (His-Trap, desalting column)
For B1, the Kd was 0.612 µM.
